Test results: the supplement of paper PMC10724198
± gives the standard deviation of the averaged measurements.

Tests used:
Saccharomyces cerevisiae [1] = experiment: protein stability index of tFT-peptide fusion (C-terminal peptide) (PSI (0-1 scale)); higher = more stable (slower turnover)
Description: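 MPS profiling in S. cerevisiae of the tFT-X12 degron library: putative degron peptides plus stable controls, 12 aa, fused to the C-terminus of a sfGFP-mCherry timer. Cells are FACS-sorted into 8 mCherry/sfGFP bins and deep-sequenced. PSI runs from 0 (unstable) to 1 (stable). Backgrounds are wild type, das1Δ and doa10Δ at 30 °C, and wild type, das1Δ, cdc34-1 and cdc53-1 at 37 °C; 2-3 technical replicates each.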

Saccharomyces cerevisiae [2] = experiment: as above; conditions: genetic background: wild type; temperature: 30 C
[3] = genetic background: cdc34-1, temperature: 37 C
[4] = genetic background: cdc53-1, temperature: 37 C
[5] = genetic background: das1 deletion, temperature: 30 C
[6] = genetic background: das1 deletion, temperature: 37 C
[7] = genetic background: doa10 deletion, temperature: 30 C
[8] = genetic background: wild type, temperature: 30 C
[9] = genetic background: wild type, temperature: 37 C
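Further: PSI is a weighted mean of sequencing reads over stability bins, variants kept only with over 10 reads, mCherry proximal and sfGFP distal, peptide attached via GGGS linker.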

| Sequence | protein stability index (Saccharomyces cerevisiae [1]; [3]) | protein stability index (Saccharomyces cerevisiae [1]; [4]) | protein stability index (Saccharomyces cerevisiae [1]; [5]) | protein stability index (Saccharomyces cerevisiae [1]; [6]) | protein stability index (Saccharomyces cerevisiae [1]; [7]) | protein stability index (Saccharomyces cerevisiae [1]; [8]) | protein stability index (Saccharomyces cerevisiae [1]; [9]) | protein stability index (Saccharomyces cerevisiae [2]) |
| --- | --- | --- | --- | --- | --- | --- | --- | --- |
| LSFRLSYPLPIY | 0.418 ± 0.017 | 0.47 ± 0.025 | 0.352 ± 0.034 | 0.5403 ± 0.0029 | 0.1 ± 0.013 | 0.108 ± 0.0014 | 0.132 ± 0.0069 | 0.178 ± 0.032 |
| APCRVPVLGLVF | 0.249 ± 0.026 | 0.265 ± 0.0055 | 0.235 ± 0.036 | 0.364 ± 0.018 | 0.204 ± 0.016 | 0.257 ± 0.013 | 0.344 ± 0.025 | 0.327 ± 0.034 |
| RCFLPVFCFVVF | 0.275 ± 0.0069 | 0.272 ± 0.0068 | 0.242 ± 0.037 | 0.413 ± 0.006 | 0.278 ± 0.014 | 0.227 ± 0.023 | 0.36 ± 0.0038 | 0.314 ± 0.018 |
| YILPTPTVISLA | 0.262 ± 0.025 | 0.271 ± 0.006 | 0.249 ± 0.034 | 0.3667 ± 0.0033 | 0.211 ± 0.0069 | 0.256 ± 0.021 | 0.326 ± 0.01 | 0.337 ± 0.029 |
| LRTLVFIWFMYV | 0.296 ± 0.045 | 0.481 ± 0.058 | 0.273 ± 0.035 | 0.4851 ± 0.0041 | 0.126 ± 0.0092 | 0.143 ± 0.024 | 0.2612 ± 0.00061 | 0.19 ± 0.067 |
| DRSPLPAIFVAQ | 0.7 ± 0.028 | 0.746 ± 0.021 | 0.674 ± 0.013 | 0.7428 ± 0.0073 | 0.665 ± 0.013 | 0.643 ± 0.012 | 0.733 ± 0.016 | 0.681 ± 0.047 |
| SDVHLKSEALAA | 0.682 ± 0.024 | 0.69 ± 0.0095 | 0.569 ± 0.025 | 0.656 ± 0.013 | 0.5543 ± 0.0018 | 0.568 ± 0.02 | 0.663 ± 0.024 | 0.542 ± 0.11 |
| GRHRRYLLLPVH | 0.487 ± 0.029 | 0.5232 ± 0.0027 | 0.369 ± 0.028 | 0.541 ± 0.0057 | 0.308 ± 0.0055 | 0.35 ± 0.019 | 0.485 ± 0.013 | 0.419 ± 0.015 |
| WSCGRVWQRFCD | 0.675 ± 0.019 | 0.74 ± 0.01 | 0.674 ± 0.018 | 0.718 ± 0.039 | 0.678 ± 0.018 | 0.631 ± 0.014 | 0.711 ± 0.016 | 0.7065 ± 0.0045 |
| SVTFVVYFISGG | 0.522 ± 0.025 | 0.608 ± 0.023 | 0.409 ± 0.022 | 0.578 ± 0.028 | 0.426 ± 0.048 | 0.421 ± 0.022 | 0.548 ± 0.0076 | 0.513 ± 0.039 |
| SLVFCYSLFVFI | 0.342 ± 0.08 | 0.464 ± 0.0058 | 0.381 ± 0.039 | 0.472 ± 0.012 | 0.368 ± 0.044 | 0.347 ± 0.04 | 0.444 ± 0.028 | 0.402 ± 0.017 |
| VVTVCIIRLAWG | 0.219 ± 0.0046 | 0.315 ± 0.056 | 0.215 ± 0.025 | 0.386 ± 0.014 | 0.189 ± 0.013 | 0.225 ± 0.018 | 0.342 ± 0.019 | 0.367 ± 0.036 |
| QHIDTLAKTHIT | 0.73 ± 0.036 | 0.74493 ± 0.00055 | 0.632 ± 0.008 | 0.7219 ± 0.005 | 0.605 ± 0.03 | 0.634 ± 0.033 | 0.7 ± 0.012 | 0.606 ± 0.15 |
| FVGCFVFYLFLL | 0.422 ± 0.023 | 0.479 ± 0.016 | 0.418 ± 0.031 | 0.5184 ± 0.0036 | 0.394 ± 0.011 | 0.362 ± 0.035 | 0.458 ± 0.027 | 0.417 ± 0.013 |
| LFGIDIVITYLL | 0.31 ± 0.011 | 0.459 ± 0.064 | 0.315 ± 0.036 | 0.441 ± 0.017 | 0.284 ± 0.015 | 0.304 ± 0.019 | 0.392 ± 0.026 | 0.398 ± 0.011 |
| PFGYYLFVPVCY | 0.29 ± 0.0094 | 0.343 ± 0.021 | 0.265 ± 0.029 | 0.3985 ± 0.00045 | 0.238 ± 0.0039 | 0.25 ± 0.027 | 0.364 ± 0.0044 | 0.349 ± 0.0044 |
| FFLFCWFVPRFS | 0.454 ± 0.0056 | 0.512 ± 0.0079 | 0.379 ± 0.027 | 0.553 ± 0.012 | 0.349 ± 0.014 | 0.351 ± 0.027 | 0.498 ± 0.016 | 0.435 ± 0.018 |

| Sequence | protein stability index (Saccharomyces cerevisiae [1]; [3]) | protein stability index (Saccharomyces cerevisiae [1]; [4]) | protein stability index (Saccharomyces cerevisiae [1]; [5]) | protein stability index (Saccharomyces cerevisiae [1]; [6]) | protein stability index (Saccharomyces cerevisiae [1]; [7]) | protein stability index (Saccharomyces cerevisiae [1]; [8]) | protein stability index (Saccharomyces cerevisiae [1]; [9]) | protein stability index (Saccharomyces cerevisiae [2]) |
| --- | --- | --- | --- | --- | --- | --- | --- | --- |
| YAFTCFLLVVAP | 0.172 ± 0.0073 | 0.23 ± 0.011 | 0.167 ± 0.021 | 0.302 ± 0.011 | 0.1642 ± 0.0014 | 0.16 ± 0.015 | 0.259 ± 0.022 | 0.237 ± 0.013 |
| GFWLAFLWYRES | 0.386 ± 0.067 | 0.507 ± 0.021 | 0.34 ± 0.035 | 0.548 ± 0.016 | 0.222 ± 0.015 | 0.248 ± 0.036 | 0.433 ± 0.033 | 0.4406 ± 0.0022 |
| GVGTFRLCVLLV | 0.233 ± 0.004 | 0.2473 ± 0.0021 | 0.273 ± 0.029 | 0.3697 ± 0.0013 | 0.156 ± 0.022 | 0.138 ± 0.0077 | 0.128 ± 0.0081 | 0.197 ± 0.02 |
| PWAQCVLLWVVV | 0.459 ± 0.043 | 0.495 ± 0.021 | 0.397 ± 0.032 | 0.5401 ± 0.0014 | 0.329 ± 0.015 | 0.359 ± 0.025 | 0.4776 ± 0.004 | 0.457 ± 0.0064 |
| GTLSSSLIKSCA | 0.602 ± 0.036 | 0.616 ± 0.017 | 0.488 ± 0.027 | 0.637 ± 0.013 | 0.481 ± 0.01 | 0.499 ± 0.029 | 0.614 ± 0.0095 | 0.52 ± 0.057 |
| RSLRLFGCLGSL | 0.756 ± 0.029 | 0.762 ± 0.027 | 0.647 ± 0.019 | 0.751 ± 0.021 | 0.658 ± 0.039 | 0.647 ± 0.023 | 0.753 ± 0.016 | 0.7185 ± 0.0059 |
| DKKNCIIIYYKQ | 0.479 ± 0.053 | 0.706 ± 0.074 | 0.653 ± 0.021 | 0.6973 ± 0.0046 | 0.0802 ± 0.03 | 0.0804 ± 0.024 | 0.106 ± 0.011 | 0.147 ± 0.062 |
| RQRQLAKKQKNA | 0.601 ± 0.043 | 0.7044 ± 0.0043 | 0.646 ± 0.0074 | 0.73 ± 0.0076 | 0.141 ± 0.032 | 0.181 ± 0.021 | 0.306 ± 0.038 | 0.322 ± 0.016 |
| FGFLVVLFDCVR | 0.336 ± 0.0095 | 0.437 ± 0.015 | 0.327 ± 0.034 | 0.474 ± 0.017 | 0.2652 ± 0.00067 | 0.291 ± 0.028 | 0.464 ± 0.0057 | 0.436 ± 0.07 |
| LVVFFPVLPIFG | 0.504 ± 0.02 | 0.554 ± 0.0072 | 0.394 ± 0.027 | 0.566 ± 0.016 | 0.383 ± 0.014 | 0.408 ± 0.0064 | 0.58 ± 0.077 | 0.4965 ± 0.0017 |
| LLPLLLFFSLLR | 0.223 ± 0.019 | 0.158 ± 0.02 | 0.34 ± 0.034 | 0.4062 ± 0.0013 | 0.601 ± 0.05 | 0.318 ± 0.034 | 0.373 ± 0.04 | 0.466 ± 0.03 |
| VSFLLLSYLCSF | 0.341 ± 0.0084 | 0.389 ± 0.01 | 0.279 ± 0.031 | 0.46 ± 0.011 | 0.172 ± 0.0023 | 0.187 ± 0.019 | 0.322 ± 0.0035 | 0.266 ± 0.012 |
| LLVSCPLVLRFR | 0.426 ± 0.048 | 0.41 ± 0.02 | 0.437 ± 0.01 | 0.576 ± 0.058 | 0.6177 ± 0.0033 | 0.431 ± 0.028 | 0.511 ± 0.012 | 0.53 ± 0.048 |
| VFCPRACWEFVG | 0.567 ± 0.041 | 0.737 ± 0.027 | 0.649 ± 0.021 | 0.7777 ± 0.0067 | 0.12 ± 0.0079 | 0.143 ± 0.0095 | 0.213 ± 0.0029 | 0.222 ± 0.034 |
| LPPVPLRLTLVL | 0.448 ± 0.0077 | 0.474 ± 0.031 | 0.353 ± 0.026 | 0.503 ± 0.005 | 0.3197 ± 0.0027 | 0.359 ± 0.024 | 0.477 ± 0.0054 | 0.4414 ± 0.00093 |
| NSFASFVVVFVI | 0.371 ± 0.018 | 0.437 ± 0.047 | 0.264 ± 0.034 | 0.512 ± 0.015 | 0.1956 ± 0.00071 | 0.227 ± 0.036 | 0.472 ± 0.03 | 0.34 ± 0.036 |
